Publication PMC6277545, “Structural Basis for the Limited Response to Oxidative and Thiol-Conjugating Agents by Triosephosphate Isomerase From the Photosynthetic Bacteria Synechocystis” (Frontiers in Molecular Biosciences, 2018)

Substrate: O=CC(O)COP(=O)(O)O
Test: coupled alpha-glycerophosphate dehydrogenase assay, A340
Assay type: biochemical, Synechocystis sp. PCC 6803
Conditions: 0.1 M TEA pH 7.4, 10 mM EDTA, 0.2 mM NADH, G3P 0-5 mM, G3P to DHAP
Source text: coupled alpha-glycerophosphate dehydrogenase assay, A340 on SyTPI

Protein	Km [µM]	kcat [s⁻¹]	kcat/Km [M⁻¹ s⁻¹]
SyTPI (Synechocystis sp. PCC 6803 substr. Kazusa; C127A/C176S/C42A) (protein, full length, codon-optimised, E. coli BL21(DE3) delta-tpi; His tag cut by PreScission, extra Gly-Pro-His before Met1; homodimer 54 kDa) MRKIIIAGNWKMHKTQAEAQAFLQGFKPLIEDAAESREVVLAVPFTDLSGMSQQLHGGRVRLGAQNVHWEASGAYTGEISAAMLTEIGIHYVVIGHSERRQYFGETDETANLRVLAAQKAGLIPILAVGESKAQRDAGETEQVIVDQVKKGLVNVDQSNLVIAYEPIWAIGTGDTSAATEANRVIGLIREQLTNSQVTIQYGGSVNANNVDEIMAQPEIDGALVGGASLEPQSFARIVNFQP	1400 ± 150	21.3 ± 1	15200
SyTPI (Synechocystis sp. PCC 6803 substr. Kazusa) (protein, full length, codon-optimised, E. coli BL21(DE3) delta-tpi; His tag cut by PreScission, extra Gly-Pro-His before Met1; homodimer 54 kDa) MRKIIIAGNWKMHKTQAEAQAFLQGFKPLIEDAAESREVVLCVPFTDLSGMSQQLHGGRVRLGAQNVHWEASGAYTGEISAAMLTEIGIHYVVIGHSERRQYFGETDETANLRVLAAQKAGLIPILCVGESKAQRDAGETEQVIVDQVKKGLVNVDQSNLVIAYEPIWAIGTGDTCAATEANRVIGLIREQLTNSQVTIQYGGSVNANNVDEIMAQPEIDGALVGGASLEPQSFARIVNFQP	800 ± 20	1850 ± 43	2.31e+06
SyTPI (Synechocystis sp. PCC 6803 substr. Kazusa; C42A) (protein, full length, codon-optimised, E. coli BL21(DE3) delta-tpi; His tag cut by PreScission, extra Gly-Pro-His before Met1; homodimer 54 kDa) MRKIIIAGNWKMHKTQAEAQAFLQGFKPLIEDAAESREVVLAVPFTDLSGMSQQLHGGRVRLGAQNVHWEASGAYTGEISAAMLTEIGIHYVVIGHSERRQYFGETDETANLRVLAAQKAGLIPILCVGESKAQRDAGETEQVIVDQVKKGLVNVDQSNLVIAYEPIWAIGTGDTCAATEANRVIGLIREQLTNSQVTIQYGGSVNANNVDEIMAQPEIDGALVGGASLEPQSFARIVNFQP	1010 ± 30	1780 ± 42	1.76e+06
SyTPI (Synechocystis sp. PCC 6803 substr. Kazusa; C127A) (protein, full length, codon-optimised, E. coli BL21(DE3) delta-tpi; His tag cut by PreScission, extra Gly-Pro-His before Met1; homodimer 54 kDa) MRKIIIAGNWKMHKTQAEAQAFLQGFKPLIEDAAESREVVLCVPFTDLSGMSQQLHGGRVRLGAQNVHWEASGAYTGEISAAMLTEIGIHYVVIGHSERRQYFGETDETANLRVLAAQKAGLIPILAVGESKAQRDAGETEQVIVDQVKKGLVNVDQSNLVIAYEPIWAIGTGDTCAATEANRVIGLIREQLTNSQVTIQYGGSVNANNVDEIMAQPEIDGALVGGASLEPQSFARIVNFQP	1040 ± 80	1770 ± 56	1.71e+06
SyTPI (Synechocystis sp. PCC 6803 substr. Kazusa; C127A/C42A) (protein, full length, codon-optimised, E. coli BL21(DE3) delta-tpi; His tag cut by PreScission, extra Gly-Pro-His before Met1; homodimer 54 kDa) MRKIIIAGNWKMHKTQAEAQAFLQGFKPLIEDAAESREVVLAVPFTDLSGMSQQLHGGRVRLGAQNVHWEASGAYTGEISAAMLTEIGIHYVVIGHSERRQYFGETDETANLRVLAAQKAGLIPILAVGESKAQRDAGETEQVIVDQVKKGLVNVDQSNLVIAYEPIWAIGTGDTCAATEANRVIGLIREQLTNSQVTIQYGGSVNANNVDEIMAQPEIDGALVGGASLEPQSFARIVNFQP	1100 ± 30	1630 ± 53	1.48e+06
SyTPI (Synechocystis sp. PCC 6803 substr. Kazusa; C176S/C42A) (protein, full length, codon-optimised, E. coli BL21(DE3) delta-tpi; His tag cut by PreScission, extra Gly-Pro-His before Met1; homodimer 54 kDa) MRKIIIAGNWKMHKTQAEAQAFLQGFKPLIEDAAESREVVLAVPFTDLSGMSQQLHGGRVRLGAQNVHWEASGAYTGEISAAMLTEIGIHYVVIGHSERRQYFGETDETANLRVLAAQKAGLIPILCVGESKAQRDAGETEQVIVDQVKKGLVNVDQSNLVIAYEPIWAIGTGDTSAATEANRVIGLIREQLTNSQVTIQYGGSVNANNVDEIMAQPEIDGALVGGASLEPQSFARIVNFQP	1460 ± 20	2130 ± 62	1.46e+06
SyTPI (Synechocystis sp. PCC 6803 substr. Kazusa; C127A/C176S) (protein, full length, codon-optimised, E. coli BL21(DE3) delta-tpi; His tag cut by PreScission, extra Gly-Pro-His before Met1; homodimer 54 kDa) MRKIIIAGNWKMHKTQAEAQAFLQGFKPLIEDAAESREVVLCVPFTDLSGMSQQLHGGRVRLGAQNVHWEASGAYTGEISAAMLTEIGIHYVVIGHSERRQYFGETDETANLRVLAAQKAGLIPILAVGESKAQRDAGETEQVIVDQVKKGLVNVDQSNLVIAYEPIWAIGTGDTSAATEANRVIGLIREQLTNSQVTIQYGGSVNANNVDEIMAQPEIDGALVGGASLEPQSFARIVNFQP	1190 ± 80	683 ± 6	573000
